The results in this text go back to PMC1654158.

Assay [1] addresses T1, Signal peptide peptidase (SPP) fluorescent fusion protein (CFP or YFP fused to the NH2- or COOH-terminus of SPP), Q8TCT9.
T1 chain: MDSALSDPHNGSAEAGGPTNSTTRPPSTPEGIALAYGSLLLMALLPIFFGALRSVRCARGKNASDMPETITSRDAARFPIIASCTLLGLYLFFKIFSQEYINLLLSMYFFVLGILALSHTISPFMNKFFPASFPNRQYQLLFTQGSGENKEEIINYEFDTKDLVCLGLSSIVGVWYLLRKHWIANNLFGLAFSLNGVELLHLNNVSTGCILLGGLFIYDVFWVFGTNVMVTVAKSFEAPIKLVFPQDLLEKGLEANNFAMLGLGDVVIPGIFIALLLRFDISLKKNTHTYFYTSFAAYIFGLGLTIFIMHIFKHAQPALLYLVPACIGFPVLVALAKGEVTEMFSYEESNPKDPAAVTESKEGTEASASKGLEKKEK
The assay is described as follows: FRET or BRET; FLIM (fluorescence lifetime imaging microscopy) in live CHO cells co-transfected with CFP-SPP (donor) and YFP-SPP (acceptor) fusion constructs, 24 hours post-transfection, in Hank's Balanced Salt Solution; donor-only (empty vector) as negative control. To be noted: remark: other sources report otherwise.

Assay [2] concerns the target T2, Epitope tagged signal peptide peptidase (SPP): COOH-terminal V5 tagged SPP (SPPCTV5) and NH2-terminal FLAG tagged SPP (…), Q8TCT9.
T2 chain: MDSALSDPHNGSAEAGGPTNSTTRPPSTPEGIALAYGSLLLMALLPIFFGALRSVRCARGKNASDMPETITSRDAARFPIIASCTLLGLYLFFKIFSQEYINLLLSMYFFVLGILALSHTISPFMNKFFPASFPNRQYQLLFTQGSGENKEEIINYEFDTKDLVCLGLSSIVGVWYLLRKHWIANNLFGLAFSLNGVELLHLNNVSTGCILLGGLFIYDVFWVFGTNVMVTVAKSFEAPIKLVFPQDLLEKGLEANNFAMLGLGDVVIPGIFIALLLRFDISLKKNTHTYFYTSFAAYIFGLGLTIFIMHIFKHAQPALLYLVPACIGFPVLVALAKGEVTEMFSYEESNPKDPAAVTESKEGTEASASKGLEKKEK
The assay is described as follows: FRET or BRET; FLIM in fixed (4% paraformaldehyde), permeabilised HEK cells stably overexpressing SPPCTV5 and …; goat anti-V5 labelled with Alexa 488 (donor), mouse anti-FLAG labelled with Cy3 (acceptor); cells expressing only SPPCTV5 as negative control. To be noted: remark: other sources report otherwise. On the technique in general: In BRET a luciferase serves as donor, and the signal depends on an acceptor being close.

B1: Signal peptide peptidase (SPP) fluorescent fusion protein (CFP or YFP fused to the NH2- or COOH-terminus of SPP), Q8TCT9 1-377 (enzyme)
chain: MDSALSDPHNGSAEAGGPTNSTTRPPSTPEGIALAYGSLLLMALLPIFFGALRSVRCARGKNASDMPETITSRDAARFPIIASCTLLGLYLFFKIFSQEYINLLLSMYFFVLGILALSHTISPFMNKFFPASFPNRQYQLLFTQGSGENKEEIINYEFDTKDLVCLGLSSIVGVWYLLRKHWIANNLFGLAFSLNGVELLHLNNVSTGCILLGGLFIYDVFWVFGTNVMVTVAKSFEAPIKLVFPQDLLEKGLEANNFAMLGLGDVVIPGIFIALLLRFDISLKKNTHTYFYTSFAAYIFGLGLTIFIMHIFKHAQPALLYLVPACIGFPVLVALAKGEVTEMFSYEESNPKDPAAVTESKEGTEASASKGLEKKEK
Turning to B1, in assay [1], the CFP donor lifetime (donor CFP at COOH-terminus of SPP, acceptor YFP at COOH-terminus of SPP; donor only 2267 psec) is 1490 psec; the CFP donor lifetime (donor CFP at NH2-terminus of SPP, acceptor YFP at COOH-terminus of SPP; donor only 2267 psec) worked out at 1530 psec; the CFP donor lifetime (donor CFP at NH2-terminus of SPP, acceptor YFP at NH2-terminus of SPP; donor only 2267 psec) worked out at 1760 psec.

B2: Epitope tagged signal peptide peptidase (SPP): COOH-terminal V5 tagged SPP (SPPCTV5) and NH2-terminal FLAG tagged SPP (…), Q8TCT9 1-377 (enzyme)
chain: MDSALSDPHNGSAEAGGPTNSTTRPPSTPEGIALAYGSLLLMALLPIFFGALRSVRCARGKNASDMPETITSRDAARFPIIASCTLLGLYLFFKIFSQEYINLLLSMYFFVLGILALSHTISPFMNKFFPASFPNRQYQLLFTQGSGENKEEIINYEFDTKDLVCLGLSSIVGVWYLLRKHWIANNLFGLAFSLNGVELLHLNNVSTGCILLGGLFIYDVFWVFGTNVMVTVAKSFEAPIKLVFPQDLLEKGLEANNFAMLGLGDVVIPGIFIALLLRFDISLKKNTHTYFYTSFAAYIFGLGLTIFIMHIFKHAQPALLYLVPACIGFPVLVALAKGEVTEMFSYEESNPKDPAAVTESKEGTEASASKGLEKKEK
In assay [2], B2 came in with an Alexa 488 donor lifetime (donor Alexa 488 labeled SPPCTV5, acceptor Cy3 labeled …) of 2200 psec and an Alexa 488 donor lifetime (donor Alexa 488 labeled SPPCTV5, acceptor Cy3 labeled …; donor only 2504 psec) of 1980 psec.
